T1: human IL-18BP (human, UniProt O95998 31-194)
T1 construct: UniProt printed as 095998; also called hIL-18BP
T1 sequence: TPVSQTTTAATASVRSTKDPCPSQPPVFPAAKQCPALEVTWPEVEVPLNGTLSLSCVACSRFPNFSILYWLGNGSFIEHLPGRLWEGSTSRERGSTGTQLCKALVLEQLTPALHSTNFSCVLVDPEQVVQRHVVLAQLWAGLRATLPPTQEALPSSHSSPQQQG

T2: human IL-18BP (human, UniProt O95998 31-194)
T2 construct: also called hIL-18BP; Mature Human Isoform A
T2 sequence: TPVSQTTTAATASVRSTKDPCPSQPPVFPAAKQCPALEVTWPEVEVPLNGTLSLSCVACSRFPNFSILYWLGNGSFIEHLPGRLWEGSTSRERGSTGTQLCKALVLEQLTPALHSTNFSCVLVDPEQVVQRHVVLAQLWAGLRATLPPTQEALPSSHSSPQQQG


The binders below were run against T1, human IL-18BP (assay: BLI, apparent KD).

Binder | Kd
SA301a HC-Y96T (antibody, name in Kabat numbering, V domains shown, IgG1 kappa) VH: QVQLQESGPGLVKPSQTLSLTCTVSGYSITSDYNSHWIRQPPGKGLEWIGYIHYSGSTNYNPSLKSRVTISRDTSKNQFSLKLSSVTAADTAVYYCARNTGSIYVNYFDYWGQGTLVTVSS VL: EIVLTQSPATLSLSPGERATLSCSASSSVSYMYWYQQKPGQAPRPLIYRTSNLASGIPARFSGSGSGTDFTLTISSLEPEDFAVYYCQQYHSYPTFGGGTKVEIK | 610 pM
SA301a HC-Y96K (antibody, name in Kabat numbering, V domains shown, IgG1 kappa) VH: QVQLQESGPGLVKPSQTLSLTCTVSGYSITSDYNSHWIRQPPGKGLEWIGYIHYSGSTNYNPSLKSRVTISRDTSKNQFSLKLSSVTAADTAVYYCARNKGSIYVNYFDYWGQGTLVTVSS VL: EIVLTQSPATLSLSPGERATLSCSASSSVSYMYWYQQKPGQAPRPLIYRTSNLASGIPARFSGSGSGTDFTLTISSLEPEDFAVYYCQQYHSYPTFGGGTKVEIK | 15200 pM
SA301a HC-Y96P (antibody, name in Kabat numbering, V domains shown, IgG1 kappa) VH: QVQLQESGPGLVKPSQTLSLTCTVSGYSITSDYNSHWIRQPPGKGLEWIGYIHYSGSTNYNPSLKSRVTISRDTSKNQFSLKLSSVTAADTAVYYCARNPGSIYVNYFDYWGQGTLVTVSS VL: EIVLTQSPATLSLSPGERATLSCSASSSVSYMYWYQQKPGQAPRPLIYRTSNLASGIPARFSGSGSGTDFTLTISSLEPEDFAVYYCQQYHSYPTFGGGTKVEIK | 460 pM
SA301a HC-S98Q (antibody, name in Kabat numbering, V domains shown, IgG1 kappa) VH: QVQLQESGPGLVKPSQTLSLTCTVSGYSITSDYNSHWIRQPPGKGLEWIGYIHYSGSTNYNPSLKSRVTISRDTSKNQFSLKLSSVTAADTAVYYCARNYGQIYVNYFDYWGQGTLVTVSS VL: EIVLTQSPATLSLSPGERATLSCSASSSVSYMYWYQQKPGQAPRPLIYRTSNLASGIPARFSGSGSGTDFTLTISSLEPEDFAVYYCQQYHSYPTFGGGTKVEIK | 12300 pM
SA301a HC-Y96H (antibody, name in Kabat numbering, V domains shown, IgG1 kappa) VH: QVQLQESGPGLVKPSQTLSLTCTVSGYSITSDYNSHWIRQPPGKGLEWIGYIHYSGSTNYNPSLKSRVTISRDTSKNQFSLKLSSVTAADTAVYYCARNHGSIYVNYFDYWGQGTLVTVSS VL: EIVLTQSPATLSLSPGERATLSCSASSSVSYMYWYQQKPGQAPRPLIYRTSNLASGIPARFSGSGSGTDFTLTISSLEPEDFAVYYCQQYHSYPTFGGGTKVEIK | 1240 pM
SA301a HC-Y96G (antibody, name in Kabat numbering, V domains shown, IgG1 kappa) VH: QVQLQESGPGLVKPSQTLSLTCTVSGYSITSDYNSHWIRQPPGKGLEWIGYIHYSGSTNYNPSLKSRVTISRDTSKNQFSLKLSSVTAADTAVYYCARNGGSIYVNYFDYWGQGTLVTVSS VL: EIVLTQSPATLSLSPGERATLSCSASSSVSYMYWYQQKPGQAPRPLIYRTSNLASGIPARFSGSGSGTDFTLTISSLEPEDFAVYYCQQYHSYPTFGGGTKVEIK | 2500 pM
SA301a HC-Y96N (antibody, name in Kabat numbering, V domains shown, IgG1 kappa) VH: QVQLQESGPGLVKPSQTLSLTCTVSGYSITSDYNSHWIRQPPGKGLEWIGYIHYSGSTNYNPSLKSRVTISRDTSKNQFSLKLSSVTAADTAVYYCARNNGSIYVNYFDYWGQGTLVTVSS VL: EIVLTQSPATLSLSPGERATLSCSASSSVSYMYWYQQKPGQAPRPLIYRTSNLASGIPARFSGSGSGTDFTLTISSLEPEDFAVYYCQQYHSYPTFGGGTKVEIK | 2800 pM
SA301a HC-Y96F (antibody, name in Kabat numbering, V domains shown, IgG1 kappa) VH: QVQLQESGPGLVKPSQTLSLTCTVSGYSITSDYNSHWIRQPPGKGLEWIGYIHYSGSTNYNPSLKSRVTISRDTSKNQFSLKLSSVTAADTAVYYCARNFGSIYVNYFDYWGQGTLVTVSS VL: EIVLTQSPATLSLSPGERATLSCSASSSVSYMYWYQQKPGQAPRPLIYRTSNLASGIPARFSGSGSGTDFTLTISSLEPEDFAVYYCQQYHSYPTFGGGTKVEIK | 130 pM
SA301a HC-S98T (antibody, name in Kabat numbering, V domains shown, IgG1 kappa) VH: QVQLQESGPGLVKPSQTLSLTCTVSGYSITSDYNSHWIRQPPGKGLEWIGYIHYSGSTNYNPSLKSRVTISRDTSKNQFSLKLSSVTAADTAVYYCARNYGTIYVNYFDYWGQGTLVTVSS VL: EIVLTQSPATLSLSPGERATLSCSASSSVSYMYWYQQKPGQAPRPLIYRTSNLASGIPARFSGSGSGTDFTLTISSLEPEDFAVYYCQQYHSYPTFGGGTKVEIK | 26900 pM
SA301a HC-S98Y (antibody, name in Kabat numbering, V domains shown, IgG1 kappa) VH: QVQLQESGPGLVKPSQTLSLTCTVSGYSITSDYNSHWIRQPPGKGLEWIGYIHYSGSTNYNPSLKSRVTISRDTSKNQFSLKLSSVTAADTAVYYCARNYGYIYVNYFDYWGQGTLVTVSS VL: EIVLTQSPATLSLSPGERATLSCSASSSVSYMYWYQQKPGQAPRPLIYRTSNLASGIPARFSGSGSGTDFTLTISSLEPEDFAVYYCQQYHSYPTFGGGTKVEIK | 20 pM
SA301a HC-Y96Q (antibody, name in Kabat numbering, V domains shown, IgG1 kappa) VH: QVQLQESGPGLVKPSQTLSLTCTVSGYSITSDYNSHWIRQPPGKGLEWIGYIHYSGSTNYNPSLKSRVTISRDTSKNQFSLKLSSVTAADTAVYYCARNQGSIYVNYFDYWGQGTLVTVSS VL: EIVLTQSPATLSLSPGERATLSCSASSSVSYMYWYQQKPGQAPRPLIYRTSNLASGIPARFSGSGSGTDFTLTISSLEPEDFAVYYCQQYHSYPTFGGGTKVEIK | 650 pM
SA301a HC-S98P (antibody, name in Kabat numbering, V domains shown, IgG1 kappa) VH: QVQLQESGPGLVKPSQTLSLTCTVSGYSITSDYNSHWIRQPPGKGLEWIGYIHYSGSTNYNPSLKSRVTISRDTSKNQFSLKLSSVTAADTAVYYCARNYGPIYVNYFDYWGQGTLVTVSS VL: EIVLTQSPATLSLSPGERATLSCSASSSVSYMYWYQQKPGQAPRPLIYRTSNLASGIPARFSGSGSGTDFTLTISSLEPEDFAVYYCQQYHSYPTFGGGTKVEIK | 550 pM
SA301a HC-Y96I (antibody, name in Kabat numbering, V domains shown, IgG1 kappa) VH: QVQLQESGPGLVKPSQTLSLTCTVSGYSITSDYNSHWIRQPPGKGLEWIGYIHYSGSTNYNPSLKSRVTISRDTSKNQFSLKLSSVTAADTAVYYCARNIGSIYVNYFDYWGQGTLVTVSS VL: EIVLTQSPATLSLSPGERATLSCSASSSVSYMYWYQQKPGQAPRPLIYRTSNLASGIPARFSGSGSGTDFTLTISSLEPEDFAVYYCQQYHSYPTFGGGTKVEIK | 4020 pM
SA301a HC-Y96V (antibody, name in Kabat numbering, V domains shown, IgG1 kappa) VH: QVQLQESGPGLVKPSQTLSLTCTVSGYSITSDYNSHWIRQPPGKGLEWIGYIHYSGSTNYNPSLKSRVTISRDTSKNQFSLKLSSVTAADTAVYYCARNVGSIYVNYFDYWGQGTLVTVSS VL: EIVLTQSPATLSLSPGERATLSCSASSSVSYMYWYQQKPGQAPRPLIYRTSNLASGIPARFSGSGSGTDFTLTISSLEPEDFAVYYCQQYHSYPTFGGGTKVEIK | 1680 pM
SA301a HC-Y96E (antibody, name in Kabat numbering, V domains shown, IgG1 kappa) VH: QVQLQESGPGLVKPSQTLSLTCTVSGYSITSDYNSHWIRQPPGKGLEWIGYIHYSGSTNYNPSLKSRVTISRDTSKNQFSLKLSSVTAADTAVYYCARNEGSIYVNYFDYWGQGTLVTVSS VL: EIVLTQSPATLSLSPGERATLSCSASSSVSYMYWYQQKPGQAPRPLIYRTSNLASGIPARFSGSGSGTDFTLTISSLEPEDFAVYYCQQYHSYPTFGGGTKVEIK | 310 pM
SA301a HC-Y96A (antibody, name in Kabat numbering, V domains shown, IgG1 kappa) VH: QVQLQESGPGLVKPSQTLSLTCTVSGYSITSDYNSHWIRQPPGKGLEWIGYIHYSGSTNYNPSLKSRVTISRDTSKNQFSLKLSSVTAADTAVYYCARNAGSIYVNYFDYWGQGTLVTVSS VL: EIVLTQSPATLSLSPGERATLSCSASSSVSYMYWYQQKPGQAPRPLIYRTSNLASGIPARFSGSGSGTDFTLTISSLEPEDFAVYYCQQYHSYPTFGGGTKVEIK | 470 pM
SA301a HC-Y96S (antibody, name in Kabat numbering, V domains shown, IgG1 kappa) VH: QVQLQESGPGLVKPSQTLSLTCTVSGYSITSDYNSHWIRQPPGKGLEWIGYIHYSGSTNYNPSLKSRVTISRDTSKNQFSLKLSSVTAADTAVYYCARNSGSIYVNYFDYWGQGTLVTVSS VL: EIVLTQSPATLSLSPGERATLSCSASSSVSYMYWYQQKPGQAPRPLIYRTSNLASGIPARFSGSGSGTDFTLTISSLEPEDFAVYYCQQYHSYPTFGGGTKVEIK | 870 pM
SA301a HC-Y96L (antibody, name in Kabat numbering, V domains shown, IgG1 kappa) VH: QVQLQESGPGLVKPSQTLSLTCTVSGYSITSDYNSHWIRQPPGKGLEWIGYIHYSGSTNYNPSLKSRVTISRDTSKNQFSLKLSSVTAADTAVYYCARNLGSIYVNYFDYWGQGTLVTVSS VL: EIVLTQSPATLSLSPGERATLSCSASSSVSYMYWYQQKPGQAPRPLIYRTSNLASGIPARFSGSGSGTDFTLTISSLEPEDFAVYYCQQYHSYPTFGGGTKVEIK | 1080 pM
SA301a HC-Y96R (antibody, name in Kabat numbering, V domains shown, IgG1 kappa) VH: QVQLQESGPGLVKPSQTLSLTCTVSGYSITSDYNSHWIRQPPGKGLEWIGYIHYSGSTNYNPSLKSRVTISRDTSKNQFSLKLSSVTAADTAVYYCARNRGSIYVNYFDYWGQGTLVTVSS VL: EIVLTQSPATLSLSPGERATLSCSASSSVSYMYWYQQKPGQAPRPLIYRTSNLASGIPARFSGSGSGTDFTLTISSLEPEDFAVYYCQQYHSYPTFGGGTKVEIK | 600 pM

These binders were tested against T2, human IL-18BP (assay: BLI, apparent KD, one conc.).

Binder | Kd
SA301a light chain variant V29T (antibody, V domains shown) VH: QVQLQESGPGLVKPSQTLSLTCTVSGYSITSDYNSHWIRQPPGKGLEWIGYIHYSGSTNYNPSLKSRVTISRDTSKNQFSLKLSSVTAADTAVYYCARNYGSIYVNYFDYWGQGTLVTVSS VL: EIVLTQSPATLSLSPGERATLSCSASSSTSYMYWYQQKPGQAPRPLIYRTSNLASGIPARFSGSGSGTDFTLTISSLEPEDFAVYYCQQYHSYPTFGGGTKVEIK | 320 pM
SA301a light chain variant V29E (antibody, V domains shown) VH: QVQLQESGPGLVKPSQTLSLTCTVSGYSITSDYNSHWIRQPPGKGLEWIGYIHYSGSTNYNPSLKSRVTISRDTSKNQFSLKLSSVTAADTAVYYCARNYGSIYVNYFDYWGQGTLVTVSS VL: EIVLTQSPATLSLSPGERATLSCSASSSESYMYWYQQKPGQAPRPLIYRTSNLASGIPARFSGSGSGTDFTLTISSLEPEDFAVYYCQQYHSYPTFGGGTKVEIK | 340 pM
